{
  "source": "the DeepSol protein solubility set",
  "test": "soluble on expression in E. coli; label from the status in PepcDB or PDB records",
  "data": [
    {"sequence": "MAKEIYSKYPMVKYLRKEALPTALCPGCGGGTVLNAFANAIDQLKIDPRDLVVVSGIGCSAWIASPYFLADTLHTTHGRAIAFATGVKVGLPDKYVVVISGDGDLASIGGNHLIHAARRNIDITVILVNNFIYGMTGGQVAPTTPFGAITTTTPYRNIEHPLNIAETVAAAGASYVARWTTAHVYQLIESIKKAITTKGFSLVEVISQCPVQFGRRNKMKQPAEMLRWFLKNSVPISKAKNMSEEELEGKFIVGEFVNRRKPEFVGELNKLIREVQSKFKEE", "values": [
      {"measurement": "soluble on expression in E. coli", "result": "not soluble"}
    ]},
    {"sequence": "CLAEGTRIFDPVTGTTHRIEDVVDGRKPIHVVAAAKDGTLHARPVVSWFDQGTRDVIGLRIAGGAILWATPDHKVLTEYGWRAAGELRKGDRVAQPRRFDGFGDSAPIPARVQALADALDDKFLHDMLAEELRYSVIREVLPTRRARTFDLEVEELHTLVAEGVVVHN", "values": [
      {"measurement": "soluble on expression in E. coli", "result": "soluble"}
    ]},
    {"sequence": "MRKWRIEDSEELYNITGWGTSYFSINDAGHVVVTPRRDGVTVDLKELVDELQLRDVASPMLLRFPDILDNRIEKMSSCFKQAAEEYGYKAENFIIYPIKVNQMRPVVEEIISHGKKFNLGLEAGSKPELHAVIAVNTDSDSLIVCNGYKDESYIELALLAQKMGKRIFLVVEKMNELKLIAKMAKQLNVQPNIGIRIKLASSGSGKWEESGGDASKFGLTSSELLEALDFMESKGLKDCLKLIHFHIGSQVTKIRRIKTALREASQFYVQLHSMGFNVEFVDIGGGLGVDYDGTRSSNSEGSVNYSIQEYVNDSISTLVDVSDKNGIPHPNIITESGRALTAHHSVLIFEVLETATLPEWDDEEEIAPDAHELVQELYSIWDSLNQNKMLEAWHDAQQIREEALDLFSHGIVDLKTRAQIERLYWSITREINQIAGGLKHAPDEFRGLSKLLADKYFCNFSLFQSLPDSWAIDQIFPIMPIQRLDEKPERSATLQDITCDSDGKIANFISTRNVAHYLPVHSLKKTEPYYLAVFLVGAYQEILGDMHNLFGDTNAVHVSVNEKGYNIEQIIDGETVAEVLDYVQYNPKKLVRTLETWVTKSVKEGKISLEEGKEFLSNYRSGLYGYTYLE", "values": [
      {"measurement": "soluble on expression in E. coli", "result": "not soluble"}
    ]},
    {"sequence": "MESADGEIEALCSIWDGVHVESKLEASRRYLKHKIKSLEDESTSASVLIEMTVSEGYPAVSPTVTLSNPRGIGEPEFRELQRQIQEIIEQNSDEMPIICQIFQHCSDFLTENQHQNMDCSICLICLASSPIIVTACDHFMHFACFNRYLTECLTGLRQEIQDAQKHMKEQVETNIFCPVCRAQLTDSNTIHNYRENVQLMIKNCKKNQKTLKNKKRRSSTTTEDVQKTIKRWHEEQRKLSKIYEKQKEKGGIIDIEEEKKRRQFFIETTTNEETDEAESTDIAENID", "values": [
      {"measurement": "soluble on expression in E. coli", "result": "not soluble"}
    ]},
    {"sequence": "QPPQFKLDPRLARLLGIHTQTRPVIIQALWQYIKTHKLQDPHEREFVLCDKYLQQIFESQRMKFSEIPQRLHALLMPPEP", "values": [
      {"measurement": "soluble on expression in E. coli", "result": "soluble"}
    ]},
    {"sequence": "MSLMPRIKPLLVLCAALLTVTPAASADVNSDMNQFFNKLGFASNTTQPGVWQGQAAGYAYGGSLYARTQVKNVQLISMTLPDINAGCGGIDAYLGSFSFINGEQLQRFVKQIMSNAAGYFFDLALQTTVPEIKTAKDFLQKMASDINSMNLSSCQAAQGIIGGLFPRTQVSQQKVCQDIAGESNIFADWAASRQGCTVGGKSDSVRDKASDKDKERVTKNINIMWNALSKNRMFDGNKELKEFVMTLTGSLVFGPNGEITPLSARTTDRSIIRAMMEGGTAKIYHCNDSDKCLKVVADTPVTISRDNALKSQITKLLASIQNKAVSDTPLDDKEKGFISSTTIPVFKYLVDPQMLGVSNSMIYQLTDYIGYDILLQYIQELIQQARAMVATGNYDEAVIEHINDNMNDATRQIAAFQSQVQVQQDALLVVDRQMSYMRQQLSARMLSRYQNNYHFGGSTLEGHHHHHH", "values": [
      {"measurement": "soluble on expression in E. coli", "result": "not soluble"}
    ]},
    {"sequence": "MEHEIGNISIARIRQMNPSLKGINNDFVMDRSEHYIPENMNPIFKYPLRLDGIIISIREKGSAKVNINLREYDIEQNDLIICAPGDILQSMLSPGIHLSQMFLISSDFLKEMYINLNSFMPFFISLKENPKFHLMEEEVQELKSFYELIEETVSRNDNFRTEIVRRLMGAYLYKIGSILHRKQPEFLSENPKSLKREEVLFNQFINLLTEHHRKERRVDFYAEQLFLSPKHFSTVVKKVSGKTAGEWIDEYVILEAKALLKYSVMSIQEVAYFMNFPNPSFFGKYFKHHTGLSPSEYKMQ", "values": [
      {"measurement": "soluble on expression in E. coli", "result": "not soluble"}
    ]},
    {"sequence": "TESPADSFLKVELELNLKLSNLVFQDPVQYVYNPLVYAWAPHENYVQTYCKSKKEVLFLGMNPGPFGMAQTGVPFGEVNHVRDWLQIEGPVSKPEVEHPKRRIRGFECPQSEVSGARFWSLFKSLCGQPETFFKHCFVHNHCPLIFMNHSGKNLTPTDLPKAQRDTLLEICDEALCQAVRVLGVKLVIGVGRFSEQRARKALMAEGIDVTVKGIMHPSPRNPQANKGWEGIVRGQLLELGVLSLLTG", "values": [
      {"measurement": "soluble on expression in E. coli", "result": "soluble"}
    ]},
    {"sequence": "HSEEAAYYAVEIGRMFDLGDEKLEKLYWAGLLHDIGKIYVPQVVLNKTSKLDEREFELIKIHPVRGYELVKEIEGFEDVAIWIRHHHERWDGKGYPDGLKGEEIPFEARVLCVADSYQAM", "values": [
      {"measurement": "soluble on expression in E. coli", "result": "soluble"}
    ]},
    {"sequence": "MSKTFRVSKVTSGNSKAIQQTKPITILLMGVDTGSKGRKETWEGNSDTMILVTVNPKTKRTTMTSLERDLLADVEGSGEAKLNSAYAEGGADLAISTIQKVLDIDIDYYALINMHGMIDLVDAVGGIEVTNHFDFPISIAENEPEFQAKVEPGTHKINGEQALVYSRMRYDDPDGDYGRQKRQREVIQKIVAKLLKMDSIGSYKKILSAVSSNVQTSINLGDSTTLRGLMGYSEALKNIKSYQLAGSDAMINGGSYQVASTEDILKVQNRIKKEVGKKGVSESKLKTSLVLNDFGTSSYVSDDFVNSTGSYEAGPSEATGGGSVSTYYGGTTYGNSYTENTSNYVQDQATTAPTINYNGSGVTTYNLVPAAQLEHHHHHH", "values": [
      {"measurement": "soluble on expression in E. coli", "result": "soluble"}
    ]},
    {"sequence": "MQYVKIKDAIVEQIDAGMLMPRQKLPAERKLAESFDTTRVTLREALSLLEAEGKIYREDRRGWFISPAPLRYDPTQTLNFTNMALAQNRQPKTELVSAKAVIANKQATRLLKLKPFSDVYRVDRVRYLDNRPVVYVTNYIRPELFPNLLDFDLSQSLTDLYREHYATQYQTIHYRISTSSLLGEMAQALRATSGTPAMVVERVNYNQKGELIDCDIEYWRHDAITIESIAELKR", "values": [
      {"measurement": "soluble on expression in E. coli", "result": "not soluble"}
    ]},
    {"sequence": "MSLSDKTMTADEAVSRLRSGMTLGIGGWGSRRKPMALVRALLRSGITDLTVVSCGGPDVGMLAAAGRIRKLVAAFVTLDSIPLEPHYRAARERGALELMEIDEAMFLWGLRAAAGRLPFLPVRAGIGSDVMRVNPGLRTITSPYVDGETFVAMPALRLDAALVHLNRADRLGNGQYLGPDPYFDDLFCEAADTAYVSCERVVDTAELTKEAAPQTLLVKRHTVTGVVEAEGHHHHHH", "values": [
      {"measurement": "soluble on expression in E. coli", "result": "not soluble"}
    ]},
    {"sequence": "MGSDKIHHHHHHMLGDLLTTFFEVARQGSITTAARQLGVSQPTVTARIRQLEDVYGVELFYRRASRVDLSDVGVALMPVVEQLMQQESNADYLLRNAGNLRFGNLRIGATGPYYILRSVAAFRQRYPAVEVSIEIGNSQQMIEALLEYRIDAAVSSHAVDDSRLARIRLASDPMVLVVHPEHPFARMPHIDIARLAECHLLVREHGSMTRQATEAALAACGQELPRHMVIGSREAIYEAIRQNIGASVVPAGEVPRDPSLRIVPFAQRPPVIHEYLYCLESRRHTRLVGALLECVESLAPHQQAQAA", "values": [
      {"measurement": "soluble on expression in E. coli", "result": "not soluble"}
    ]},
    {"sequence": "MGHHHHHHSHMKDIGHLQHLAQRLQWNRRAVNICGMHGWTKDLSPHSRMPSMLEHVKHYMSC", "values": [
      {"measurement": "soluble on expression in E. coli", "result": "not soluble"}
    ]},
    {"sequence": "AHHHHHHGSVSKPHGGKLIRRIAAPRTRERILSEQHEYPRVQIDHGRAIDLENIAHGVYSPLKGFLTREDFESVLDYMRLSDDTPWTIPIVLDVGEPTFEGGDAILLYYENPPIARMHVEDIYTYDKKEFAVKVFKTDDPNHLGVARVYSMGKYLVGGGIELLNELPNPFAKYTLRPVETRILFKERGWKTIVAFQTRNVPHLGHEYVQKAALTFVDGLFINPVLGRKKKGDYKDEVIIKAYYLIMKYCSNTTHHAIMRKTSTSSQT", "values": [
      {"measurement": "soluble on expression in E. coli", "result": "not soluble"}
    ]},
    {"sequence": "MGSDKIHHHHHHMNDALITDALIRGRHAKRGFHRERPVPLETVRDILAVAKYAPSSSNTQPWRCYVVIGDARDRLANAAVEAYRADPENLTPEYPFFPKPLHEPYSARFNTFRGQLGDAQGVPRSDKAGRRRDVERQFRFFDAPIGLIFTMDRRLEWASFLCYGCFLQNIMLAARARGLDTCPQQIWSLQYAVLREQLDIPEGEMVVAGMSLGYADDSLPENNMALRRLELEEFVSVIEG", "values": [
      {"measurement": "soluble on expression in E. coli", "result": "not soluble"}
    ]}
  ]
}
